The target of the series is T1, OX40 (CD134) (Mus musculus, UniProt P47741 P47741:20-211).
T1 sequence: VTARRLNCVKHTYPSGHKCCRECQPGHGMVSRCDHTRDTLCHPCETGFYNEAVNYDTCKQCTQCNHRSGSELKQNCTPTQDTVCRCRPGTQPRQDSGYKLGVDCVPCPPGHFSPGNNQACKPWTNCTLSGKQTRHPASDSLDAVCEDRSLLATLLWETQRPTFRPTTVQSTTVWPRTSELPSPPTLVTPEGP
Nature of the series: filter; 20 mM Hepes pH 7.4, 150 mM NaCl, 2 mM CaCl2; Kd not given. Conditions: tags: human IgG Fc fusion; chain copies: 2; label: 5' 32P. The method, then: Eleven rounds of selection were performed with increasing stringency throughout the selection process by increasing the RNA: OX40 protein ratio in the selection reaction. Aptamers from rounds 9 and 11 DNA were cloned into a plasmid vector, and single colonies were sequenced and amplified by low cycle PCR amplification following by in vitro transcription. Binding constants for the clones were determined using filter-binding assays in a buffer composed of 20 mM Hepes pH 7.4, 150 mM NaCl, 2 mM CaCl2. To determine the affinities of monomeric aptamers (e.g., which may be expressed as Kd or dissociation constant), serial dilutions of murine OX40 IgG Fc fusion protein, human IgG1, or protein G were incubated with monomeric 5′ ³²P radiolabeled aptamers at 2000 cpm/μL. The mixture was passed over a stack of membranes consisting of a nitrocellulose membrane and nylon membrane through application of a vacuum. The membranes were exposed to a phosphoimager screen, scanned and quantitated using a phosphoimager. Finally, differential fractions of RNA bound were calculated and graphed using commercially available software, and affinity was then expressed as Kd. The predicted secondary structure of the resultant nucleic acid aptamers was determined by utilizing the algorithm m-fold using default settings for folding parameters. Illustrative examples of the nucleic acid aptamers isolated from the aforementioned selections against OX40 are shown in Table 2; wherein nucleic acid sequences comprising SEQ ID NOs: […] represent the variable regions from clones with binding specificity to OX40; and a nucleic acid sequence comprising SEQ ID:87 represents the RNA library constant regions, with a constant region (e.g., nucleic acid bases in positions 1-41 of […]) flanking the 5′ end of the variable regions, a constant region (e.g., nucleic acid bases in positions 82-106 of SEQ ID NO:87) flanking the 3′end of the variable regions, and the variable regions being designated by N(40) in Table 2 (nucleic acid bases in positions 42-81 of SEQ ID NO:87). It is understood by those skilled in the art that the variable regions may be flanked by constant regions other than those comprising the constant regions depicted in SEQ ID NO: 87, while still retaining binding activity for OX40.

B1: OX40 aptamer SEQ 86 (ssRNA)
RNA: GGGAGGACGAUGCGGCCGUCAACCAAUCUCUCGCUUCACACGGCCAUGCCUCCAUCAGACGACUCGCUGAGGAUCCGAGA
modifications: 2'-F pyrimidines, 2'-OH purines
With B1, the binding result is “binds”.

B2: OX40 aptamer SEQ 83 (ssRNA)
RNA: GGGAGGACGAUGCGGAUACCACCUAGUGUGAGGAACCCCGCUUCCUAGACUGCGCAGACGACUCGCUGAGGAUCCGAGA
modifications: 2'-F pyrimidines, 2'-OH purines
B2: the binding result is listed as “binds”.

B3: OX40 aptamer SEQ 80 (ssRNA)
RNA: GGGAGGACGAUGCGGCAAACCAGCUAUUUCCUGAGGUACCCCGGCUCUCCAUGGCAGACGACUCGCUGAGGAUCCGAGA
modifications: 2'-F pyrimidines, 2'-OH purines
In the case of B3, the binding result is recorded as “binds”.

B4: OX40 aptamer SEQ 82 (ssRNA)
RNA: GGGAGGACGAUGCGGCUUUUGAAUGCUCCCUUCACUCCAAGCGGCAGCCUAUCGUCAGACGACUCGCUGAGGAUCCGAGA
modifications: 2'-F pyrimidines, 2'-OH purines
Regarding B4, the binding result is “binds”.

B5: OX40 aptamer SEQ 78 (ssRNA)
RNA: GGGAGGACGAUGCGGAUACCAGGAUCACAUCCUGAGGAACCCCGGCUCCCAACCUCAGACGACUCGCUGAGGAUCCGAGA
modifications: 2'-F pyrimidines, 2'-OH purines
For B5, the binding result is given as “binds”.

B6: OX40 aptamer SEQ 85 (ssRNA)
RNA: GGGAGGACGAUGCGGCACUAACUCCAGCGACUCCAUCGCCAUUCCAACUCUACGCCAGACGACUCGCUGAGGAUCCGAGA
modifications: 2'-F pyrimidines, 2'-OH purines
As for B6, the binding result is recorded as “binds”.

B7: OX40 aptamer SEQ 79 (ssRNA)
RNA: GGGAGGACGAUGCGGCUUUAAUCCUCGCACUCAGCGCGCAUCACCCUUGACAUCACAGACGACUCGCUGAGGAUCCGAGA
modifications: 2'-F pyrimidines, 2'-OH purines
For B7, the binding result is reported as “binds”.

B8: OX40 aptamer SEQ 84 (ssRNA)
RNA: GGGAGGACGAUGCGGCAACCCAUCCAUACCAACAUGGAGCUAAUGUUAGUCAACGCAGACGACUCGCUGAGGAUCCGAGA
modifications: 2'-F pyrimidines, 2'-OH purines
Turning to B8, the binding result is on record as “binds”.

B9: OX40 aptamer SEQ 81 (ssRNA)
RNA: GGGAGGACGAUGCGGAUACCAGCGAAUAACUCGCUGAGGAACCCGACUCACAAACAGACGACUCGCUGAGGAUCCGAGA
modifications: 2'-F pyrimidines, 2'-OH purines
Consider B9, for which the binding result was “binds”.

B10: OX40 aptamer SEQ 77 (ssRNA)
RNA: GGGAGGACGAUGCGGCAGUCUGCAUCGUAGGAAUCGCCACCGUAUACUUUCCCACCAGACGACUCGCUGAGGAUCCGAGA
modifications: 2'-F pyrimidines, 2'-OH purines
As to B10, the binding result is on record as “binds”.

(Values after patent publication US20100076060, “Aptamers as agonists” (DUKE UNIVERSITY, published 2010).)
